For the assay, the target named is VASP-EVH1 (human VASP aa1-115, GST cleaved with thrombin) (human, UniProt P50552 1-115). The assay can be described thus: ITC. A general note: In ITC the heat of successive injections is recorded.
VASP-EVH1 (human VASP aa1-115, GST cleaved with thrombin), sequence (P50552 1-115): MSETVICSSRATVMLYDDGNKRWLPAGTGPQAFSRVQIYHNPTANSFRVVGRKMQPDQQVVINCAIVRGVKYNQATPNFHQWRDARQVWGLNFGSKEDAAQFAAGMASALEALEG

B1: 15-mer WAVE2-derived peptide Ac-SEDNLPPPPAEFSYP-NH2 (peptide)
peptide: Ac-SEDNLPPPPAEFSYP-NH2
The molecule B1 showed a Kd of 250 µM.

What is called Kd is the equilibrium constant for the complex coming apart.

These data come from publication PMC12232546 (Proceedings of the National Academy of Sciences of the …, 2025).
